Positions count from the first letter of the chain named.
T1: mouse Claudin-6 (CLDN6) (mouse, UniProt Q9Z262 1-219)
T1 construct: whole, on cells; GFP fusion on engineered HEK293T cells; also called Mouse CLDN6; murine CLDN6
T1 sequence (looked up): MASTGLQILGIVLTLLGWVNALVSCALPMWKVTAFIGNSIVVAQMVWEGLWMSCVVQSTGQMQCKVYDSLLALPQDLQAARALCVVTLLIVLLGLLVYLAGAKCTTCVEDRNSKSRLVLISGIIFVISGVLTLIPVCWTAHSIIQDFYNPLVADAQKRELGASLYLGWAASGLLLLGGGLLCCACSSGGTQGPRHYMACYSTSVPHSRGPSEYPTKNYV

T2: Claudin-9 (CLDN9) (human, UniProt O95484 1-217)
T2 construct: whole, on cells; also called CLDN9-GFP; CLDN9-mGFP
T2 sequence (looked up): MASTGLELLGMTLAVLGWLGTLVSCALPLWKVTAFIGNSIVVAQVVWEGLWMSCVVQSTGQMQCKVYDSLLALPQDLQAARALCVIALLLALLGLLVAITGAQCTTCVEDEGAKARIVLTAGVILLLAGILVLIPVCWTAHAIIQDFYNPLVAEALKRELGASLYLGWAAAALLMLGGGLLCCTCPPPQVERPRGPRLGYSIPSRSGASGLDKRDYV

B1: AB1-6 (antibody, V domains shown)
VH: QVQLVQSGAEVKKPGASVKMSCKASGYTFTTYTMHWVRQAPGQGLEWIGFINPSSGYTDYAQKFQGRVTLTADTSTSTVYMELSSLRSEDTAVYYCANGDYYVAYWGQGTLVTVSS
VL: DIQMTQSPSSLSASVGDRVTITCTASSSVSSTYFHWYQQKPGKAPKLLIYSTSNLASGVPSRFSGSGSGTDYTLTISSLQPEDFATYYCHQYHRSPLTFGQGTKLEIK
notes: humanized
B2: AB9 (antibody, V domains shown)
VH: EVQLQQSGPELVKPGASVKMSCKASGYRFTDYNMHWVKQSHGKSLEWIGYINPNNGGTNYNQNFKGKATLTVNKSSSTAYMELRSLTSEDSAAYYCARDYLYFFDCWGQGTTLTVSS
VL: DIQMTQSPASQSASLGESVTITCLASQTIGTWLAWYQQKPGKSPQLLIYAAASLADGVPSRFSGSGSGTRFSFKISSLQAEDFVSYYCQQLYSIPRTFGGGTKLEIK
B3: AB18 (antibody, V domains shown)
VH: QVQLKQSGPELEKPGASVKISCKASGYSFTGYNMNWVKQSNGKSLEWIGNIDPYYGGSTYNQKFTGKATLTVDKSSSTAYMQLKSLTSEDSAVYYCARERSGYVFSAMDYWGQGTSVTVSS
VL: NIMMTQSPSSLAVSAGEKVTMSCKSSQSVLFSSNQKNYLAWYQQKPGQSPRLLIYWASTRESGVPDRFTGSGSGTDFTLTISNVQAEDLAVYYCHQYLSSRTFGAGTKLELK
B4: AB19 (antibody, V domains shown)
VH: EVQLQQSGPELVKPGGSMKISCKASGYSFTGYTMNWVKRSHGKNLEWIGLINPYNGVTTYNQNFKGKATLAVDKSSSTAYMELLGLTSEDSAVYYCTRDPLYYGYRDSTMDYWGQGTSVTVSS
VL: B3 VL
B5: AB2 (antibody, V domains shown)
VH: EVKLEESGGGLVQPGGSMKLSCVASGFTFSDYWMNWVRQSPEKGLEWVAQIRLKSDNYATHYAESVKGRFTISRDDSKRSVYLQMNNLRAEDTGTYYCNDGPPSGCWGQGTTLIVSS
VL: DIQMTQSPASLSASVGETVTITCRISENIYSYLAWYQQKQGKSPQLLVYNAKILVEGVPSRFSGSGSGTQFSLKINSLQPEDFGNYYCQHHYTVPWTFGGGTKLEIK
notes: full-length IgG (ExpiCHO)
B6: AB3 (antibody, V domains shown)
VH: B5 VH with D31N
VL: B5 VL
notes: full-length IgG (ExpiCHO)
B7: AB1 (antibody, V domains shown)
VH: QVQLQQSAAELARPGASVKMSCKASGYTFTTYTMHWVKQRPGQGLEWIGFINPSSGYTDYNQKFKDRTTLTADKSSSTVYMQLSSLTSEDSAVYYCANGDYYVAYWGQGTLVTVSA
VL: QIVLTQSPAIMSASLGERVTMTCTASSSVSSTYFHWYQQKPGSSPKLWIYSTSNLASGVPRRFSGSASGTSYSLTISSMEAEDAATYYCHQYHRSPLTFGAGTKLELK
notes: full-length IgG (ExpiCHO)
B8: AB17 (antibody, V domains shown)
VH: QVQLQQSGAELAKPGASVKMSCKASGYTFTGYWMHWVKQRPGQGLEWLGYINPSTGYTESNQKFKDKATLTADKSSTTAYMQLRSLTPEDSAVYYCAREGITTVLVDYWGQGTTLTVSS
VL: B7 VL with T32S, F34L, R61A, A67G, L97P
B9: AB13 (antibody, V domains shown)
VH: QVQLQQSGAELVRPGTSVKVSCKASGYAFSNYLIEWVKQRPGQGLEWIGVINPGSGGTNYNEKFKGKATMTADKSSSTAYMHLSNLTSEDSVVYFCARSYFGRSYPYTMDYWGQGTSVTVSS
VL: EIVLTQSPTTMAASPGEKITITCSASSSISSNYLHWYQQKPGFSPKLLIYRTSNLASGVPARFSGSGSGTSYSLTIGTMEAEDVATYYCQQGSSIPLTFGAGTKLELK
B10: AB10 (antibody, V domains shown)
VH: QIQLVQSGPALKKPGETVKISCKASGYTFTDYSMHWIKQAPGKGLKWMGWISTETGEPTYADGFKGRFDFSLETSADTAYLSINNLTNEDTATYFCTRGLWSSFAYWGQGTLVTVSA
VL: DVVMTQTPLSLPVSLGDQASISCRASQSLVHSNGNTYLHWFLQKPGQSPKLLIYKVSNRFSGVPDRFSGSGSRTDFTLKISRVEAEDLGVYFCSQITHVPYTFGGGTKLEIK
notes: full-length IgG (ExpiCHO)
B11: AB14 (antibody, V domains shown)
VH: QVQLQQSGPELVRPGVSVKISCKGSGYTFTDYAMHWVKQSHAKSLEWIGVISTYSGNTNYNQKFQDKATMTVDKSSSTAYMALARLTSDDSAIYYCARRGDYSLYAMDYWGQGTSVTVSS
VL: DIVLTQSPASLAVSLGQRATISCKASQSVDYDGDNYVNWYQQKVGQPPKLLISAASNLESGIPARFSGSGSGTDFTLNIHPVEEEDAATYYCQQSNEDPFTFGSGTKLEIK

Target: human Claudin-6 (CLDN6) (human) (UniProt P56747)
Experiment: FACS, 0.3 ug Ab, ARK2 cells (2nd Ab only 1351.21)

| Binder | FACS fluorescence |
| --- | --- |
| B1 | 2820 |

Target: human Claudin-6 (CLDN6) (human) (UniProt P56747)
Experiment: FACS titration of labelled mAb on HEK293T-CLDN6-mGFP cells

| Binder | EC50 [nM] |
| --- | --- |
| B2 | 2670 |
| B1 | 5000 |
| B3 | 5000 |
| B4 | 5000 |
| B5 | 182 |
| B6 | 604 |
| B7 | 109 |
| B8 | 2650 |
| B9 | 5000 |
| B10 | 2760 |
| B11 | 5000 |

Target: CLDN3/4 (endogenous on LS513 or MCF7 cells)
Experiment: FACS titration of labelled mAb on LS513 cells (endogenous CLDN3/4+)

| Binder | EC50 [nM] |
| --- | --- |
| B2 | 1040 |
| B1 | 5000 |
| B3 | 5000 |
| B4 | 5000 |
| B5 | 5000 |
| B6 | 5000 |
| B7 | 5000 |
| B8 | 5000 |
| B9 | 1590 |
| B10 | 1950 |
| B11 | 1160 |

Target: human Claudin-6 (CLDN6) (human) (UniProt P56747)
Experiment: FACS titration of labelled mAb on OVCA429 cells (endogenous CLDN6+)

| Binder | EC50 [nM] |
| --- | --- |
| B2 | 1160 |
| B1 | 5000 |
| B3 | 2440 |
| B4 | 5000 |
| B5 | 912 |
| B6 | 1100 |
| B7 | 84 |
| B8 | 5000 |
| B9 | 2290 |
| B10 | 2470 |
| B11 | 1660 |

Target: human Claudin-6 (CLDN6) (human) (UniProt P56747)
Experiment: FACS, 1.5 ug Ab, OVCA429 cells (2nd Ab only 885.77)

| Binder | FACS fluorescence |
| --- | --- |
| B1 | 29900 |

Target: human Claudin-6 (CLDN6) (human) (UniProt P56747)
Experiment: FACS, 1.5 ug Ab, ARK2 cells (2nd Ab only 1351.21)

| Binder | FACS fluorescence |
| --- | --- |
| B1 | 7740 |

Target: T1, mouse Claudin-6 (CLDN6)
Experiment: FACS, 293T clone expressing mouse CLDN6, dose not stated (2nd Ab only 1061.72)
Experimental: Two doses (1.5 μg or 0.3 μg) of the humanized antibodies were tested for binding to either human CLDN6 or murine CLDN6 which proteins were expressed by engineered 293T clones.

| Binder | FACS fluorescence |
| --- | --- |
| B1 | 77600 |

Target: T2, Claudin-9 (CLDN9)
Experiment: FACS titration of labelled mAb on HEK293T CLDN9-mGFP cells
Experimental: (§1) CLDN6 antibodies were tested from 0.32 nM to 1000 nM (serial dilution 1:5, 6 points) in a 50 μl volume with 150,000 cells system.
(§2) CLDN6-expressing cells were used in FACS assays to determine the CLDN6 antibody's ability to bind to CLDN6 on the surface of cells and to cross-react with other CLDN family members. HEK293 T cells engineered to express human CLDN6 fused to GFP, mouse CLDN6 fused to GFP, CLDN9-GFP, CLDN4-GFP, or CLDN3-GFP, or GFP alone (without CLDN6) were used as artificial models of CLDN6 expression.
(§3) For each type of cell tested and for each mAb, cells were detached from the surface of the culture flasks by EDTA (instead of trypsin) in order to protect the cell surface proteins. The detached cells were then incubated with Alexa Fluor®-labeled CLDN6 mAbs for 30 min in the dark on ice at a pre-determined concentration. […] After washing, the cells were read by a BD Accuri™ Flow Cytometer C6 to detect antibody-antigen protein binding in channel FL4H. Each antibody was tested at varied concentrations to establish a dose-fluorescence curve. […] Cross-reactivity data were obtained using a similar methodology, but with cells having a different expression profile for CLDN6, CLDN3, CLDN4 and CLDN9.

| Binder | EC50 [nM] |
| --- | --- |
| B7 | 2760 |
| B10 | 246 |

Target: T1, mouse Claudin-6 (CLDN6)
Experiment: FACS titration of labelled mAb on HEK293T mouse CLDN6-mGFP cells
Experimental: as §1, §2, §3

| Binder | EC50 [nM] |
| --- | --- |
| B5 | ≥ 5000 |
| B6 | 2490 |
| B7 | 72 |

Target: human Claudin-6 (CLDN6) (human) (UniProt P56747)
Experiment: FACS titration of labelled mAb on ARK2 cells (endogenous CLDN6+)

| Binder | EC50 [nM] |
| --- | --- |
| B2 | 1140 |
| B1 | 5000 |
| B3 | 1350 |
| B4 | 5000 |
| B5 | 1360 |
| B6 | 1650 |
| B7 | 105 |
| B8 | 5000 |
| B9 | 1150 |
| B10 | 2140 |
| B11 | 1300 |

Target: CLDN3/4 (endogenous on LS513 or MCF7 cells)
Experiment: FACS titration of labelled mAb on MCF7 cells (endogenous CLDN3/4+)

| Binder | EC50 [nM] |
| --- | --- |
| B2 | 5000 |
| B1 | 5000 |
| B3 | 5000 |
| B4 | 5000 |
| B5 | 5000 |
| B6 | 5000 |
| B7 | 5000 |
| B8 | 5000 |
| B9 | 5000 |
| B10 | 5000 |
| B11 | 546 |

Target: human Claudin-6 (CLDN6) (human) (UniProt P56747)
Experiment: FACS, 0.3 ug Ab, 293T clone expressing human CLDN6 (2nd Ab only 768.07)

| Binder | FACS fluorescence |
| --- | --- |
| B1 | 120000 |

Target: human Claudin-6 (CLDN6) (human) (UniProt P56747)
Experiment: FACS, 1.5 ug Ab, 293T clone expressing human CLDN6 (2nd Ab only 768.07)

| Binder | FACS fluorescence |
| --- | --- |
| B1 | 227000 |

Source: patent US20230049752A1 (University of California, published 2023)
